One data set relates to FMCD animal models. As to the kind of experiment: Metformin treatment of FMCD animal models, video-EEG seizure analysis. Type of data set: in vivo, mouse. The source says:
In this experiment, metformin was intraperitoneally injected at a dose of […] into the FMCD animal models of Example 1 from P14 to P56 for early treatment and from P84 to P114 for late treatment.

Data set [1] relates to eIF4E. Briefly: Western blot of eIF4E knockdown by sheIF4E in cell lysates (Neuro2A). The settings on record: vs shScramble. Type of data set: cell-based, mouse. The protocol: The pSicoR vector digested with HpaI and XhoI restriction enzymes was ligated with the shScramble or the sheIF4E sequence in the presence of ligase to construct pSicoR-shScramble and pSicoR-sheIF4E vectors, respectively. Neuro2A cells were cultured and transfected with pSicoR to evaluate the translational downregulation of eIF4E in the same manner as in Example 1.2.
Construction of pCIG-MTOR mutant-IRES-GFP; mU6-shScramble or pCIG-MTOR mutant-IRES-GFP; mU6-sheIF4E vector and the inhibitory activity of sheIF4E against eIF4E were identified by western blot analysis using cell lysates.
(In general: Immunoblotting shows a protein as a band on a membrane.)

The test system of data set [2] is FMCD and epilepsy animal models (mTOR-p.C1483Y, mTOR-p.L2427P). Briefly: 3-Chamber test (social interaction), FMCD epilepsy models. In kind it is in vivo, mouse. The settings on record: mU6-sheIF4E models compared to mU6-shscramble models. The protocol: The 3-Chamber test measures social interaction and preference for social novelty. This apparatus consisted of three chambers with dimensions of 12×20×26 cm for the center chamber and dimensions of 14×20×26 cm for the opposite side chambers. Each of the opposite side chambers included a plastic cage (11 cm in diameter, 2.15 cm in height) for an object or stranger mouse in a corner. This experiment consisted of three sessions of habituation (10 min), exploring object/mouse (10 min), and exploring familiar/new mouse (10 min). In the second session, a WT stranger mouse was randomly placed in a plastic cage while the opposite plastic cage was empty. The mouse was allowed to freely explore the whole apparatus. The time spent in each chamber was measured and then used for the subsequent social interaction test. In the last session, a new WT stranger was placed in the empty plastic cage.
Experiments were performed on the FMCD and epilepsy animal models (mTOR-p.C1483Y, mTOR-p.L2427P) of Example 7-1 and the control normal animal models (mTOR-WT). […]
(§1) Briefly, ASO #77 was administered by ICV injection to the FMCD and epilepsy animal models were generated with the pCIG-mTOR mutant-IRES-EGFP of Example 1. ASO #77 was evaluated for therapeutic potential for neuropsychiatric disorder accompanying the FMCD epilepsy animal models in the substantially same manner as in Example 6.

Data set [3] has the same test system. Briefly: Light & dark box test, FMCD epilepsy models. The settings on record: mU6-sheIF4E models compared to mU6-shscramble models. Type of data set: in vivo, mouse. The protocol: (§2) Behaviors were recorded and analyzed using EthoVision XT (Noldus).
(§3) Experiments were performed on the FMCD and epilepsy animal models (mTOR-p.C1483Y, mTOR-p.L2427P) of Example 7-1 and the control normal animal models (mTOR-WT). The same sheIF4E as that described in Example 2 was used. Week 2 after sheIF4E injection, the handling was performed in the animals. Week 3 after sheIF4E injection, the animals were subjected to the behavioral tests.
(§4) The epilepsy animal models were subjected to the substantially same behavioral abnormality assay as in Example 6. The results are depicted in FIGS. 28 and 29.
as §1

Data set [4] deals with FMCD animal models (mTOR p.C1483Y, mTOR p.L2427P). As to the kind of experiment: Video seizure monitoring in FMCD animal models with sheIF4E-mediated eIF4E knockdown. In kind it is in vivo, mouse. The protocol: In FMCD animal models, the onset of epilepsy starts at postnatal day 21 on average and has been completed within postnatal day 50. Video EGG monitoring was conducted from 3 weeks after birth. EGG signals were recorded for 12 hours per day three times in a week from postnatal day 21 to postnatal day 120. From the 12-hour video recordings, the number and length of seizures were measured.
From the 12-hours video recordings, the number and length of seizures were measured (FIG. 10).

Data set [5] deals with FMCD and epilepsy animal models (mTOR-p.C1483Y, mTOR-p.L2427P). As to the kind of experiment: Social avoidance test, FMCD epilepsy models. Type of data set: in vivo, mouse. The settings on record: mU6-sheIF4E models compared to mU6-shscramble models. The protocol: The arena was a black box (400×400 mm).
as §3, §4, §1

The subject of the next data set is ADK, IRSp53, and CREB1. Briefly: Immunostaining for ADK, IRSp53 and CREB1 in sheIF4E FMCD mice. In kind it is in vivo, mouse. The settings on record: mTOR p.Cys1483Tyr and p.Leu2427Pro mice, compared to shScramble mice. The source says: Therefore, the present inventors performed additional immunostaining in order to investigate in vivo knockdown effect on the expression of ADK, IRSp53, and CREB1 in the FMCD mice, and confirmed significant reduced expression of the genes (FIG. 9e). In the brain tissues at postnatal day 21 from the animal models established using pCIG-MTOR mutant-IRES-GFP; mU6-sheIF4E vector in the same manner as in Examples 1-3 and 3-1, the expression of ADK, IRSp53, and CREB1 was decreased with decreasing of eIF4E expression.
In order to examine whether sheIF4E-mediated in-vivo knockdown of eIF4E led to the expression downregulation of eIF4E-sensitive genes, expression of eIF4E-sensitive genes was analyzed by immunofluorescence. The immunofluorescence results are depicted in FIG. 9e. The animal models with the sheIF4E-mediated eIF4E knockdown characteristic and the shScramble mice were substantially the same as in Example 2-1.

For data set [6], the system named is FMCD and epilepsy animal models (mTOR-p.C1483Y, mTOR-p.L2427P). Briefly: Sucrose preference test, FMCD epilepsy models. Type of data set: in vivo, mouse. The settings on record: mU6-sheIF4E models compared to mU6-shscramble models. The protocol:
Each of mice was habituated for 3-5 days in a cage with two selectable water bottles presented. Thereafter, the mice were each placed in the same cage as the habituation cage at the day of experiment. The mice were presented with two dual bottles, one containing tap water and the other containing 1% sucrose solution. Water and sucrose solution intake was measured after 24 hours and sucrose preference was calculated according to volume of sucrose intake/total volume of fluid intake×100%.
The same sheIF4E as that described in Example 2 was used. Week 2 after sheIF4E injection, the handling was performed in the animals. Week 3 after sheIF4E injection, the animals were subjected to the behavioral tests.
The epilepsy animal models were subjected to the substantially same behavioral abnormality assay as in Example 6.
as §1

The test system of data set [7] is eIF4E. As to the kind of experiment: Immunostaining for eIF4E in sheIF4E FMCD mice. Particulars: brain tissue at postnatal day 21. In kind it is in vivo, mouse. The source says: For the animal model, prepared in Example 2-1, in which eIF4E was knock-downed using sheIF4E, after embryos that had been electroporated with a plasmid carrying an mTOR mutant gene at embryonic day 14 (E14), in the same manner as in U.S. Pat. No. 9,629,346, were born, the mice expressing fluorescence were screened by flashlight (Electron Microscopy Science, USA).

Data set [8] relates to FMCD epilepsy animal models. As to the kind of experiment: Cortical dysplasia, neuron size and synaptic spine density in sheIF4E FMCD mice. Type of data set: in vivo, mouse. The protocol: Then, mice born following the electroporation of Example 1-6 were analyzed for neuronal cell size and synaptic spine density. Neuronal cell size was measured in ImageJ software (http://rsbweb.nih.gov/ij/). Synaptic spines were counted using a 63× objective lens. Ten basal dendrites were acquired per subject, and measured in electroporated cells expressing a GFP reporter, using manual counting. For neuronal cell size (FIG. 12), mouse brain tissues at postnatal day 21 were acquired and the size of GFP (green)-positive mutant cells (shScramble or sheIF4E expressed) was measured. For synaptic spine density (FIG. 13), mouse brain tissues at postnatal day 21 were acquired and synaptic spines of basal dendrites were counted in GFP (green)-positive mutant cells (shScramble or sheIF4E expressed).
In addition, for cortical dysplasia (FIG. 11), mouse brain tissues at postnatal day 7 of Example 2-1 were acquired and distributions of GFP (green)-positive mutant cells (shScramble or sheIF4E expressed) in the cortex were detected (n=5 in each case. Scale bar=100 μm. Mean±SEM).

Data set [9] has as its system FMCD and epilepsy animal models (mTOR-p.C1483Y, mTOR-p.L2427P). In kind it is in vivo, mouse. The protocol:
as §2, §3, §4, §1

The test system is the same in data set [10]. As to the kind of experiment: Marble burying test, FMCD epilepsy models. Particulars: mU6-sheIF4E models compared to mU6-shscramble models. Type of data set: in vivo, mouse. The protocol: A mouse was placed in the cage.
as §3, §4, §1

For `CN(C)C(=N)N=C(N)N` [metformin], the seizure onset entry in the data set on FMCD animal models (early treatment P14 to P56, intraperitoneal, 200 m/kg) is reported as “prevented seizure onset”. For the same molecule, the “seizure frequency and duration” value in the data set with FMCD animal models (epilepsy animal models, FIGS. 14 and 15) was “reduction of seizure frequency and duration”. Besides, the seizure frequency entry with FMCD animal models (late treatment P84 to P114, intraperitoneal, 200 m/kg) is listed as “suppressed seizure frequency”.

B1: sheIF4E: shRNA against eIF4E, sense SEQ ID NO: 203 and antisense SEQ ID NO: 204, expressed from mU6 promoter in pCIG-mTOR mutant vector (nucleic acid)
sense: TCGATTGATCTCTAAGTTTGATTTCAAGAGAATCAAACTTAGAGATCAATCGTTTTTTCTCGA
antisense: TCGAGAAAAAACGATTGATCTCTAAGTTTGATTCTCTTGAAATCAAACTTAGAGATCAATCGA
Turning to B1, the “knockdown of eIF4E by western blot” value with eIF4E [1] is “efficient knockdown”. In [2], the “time spent in sniffing zone (social ability)” value is recorded as “increased”. Moreover, the “time spent in center (residence time within the light box)” value in [3] is on record as “increased”. For the same molecule, the “frequency and time of seizure” value in data set [4] (FMCD animal models in which epilepsy was generated) is recorded as “remarkably decreased”. Also, in data set [4] (FMCD epilepsy mice), the spontaneous seizures entry was “almost completely rescued”. In addition, the animals with seizure result in data set [4] (mTOR p.L2427P mutation, video recordings until postnatal day 120) is reported as “five of 20”. Also, the “time spent to interact with the stranger mouse (social ability and depression)” value in data set [5] was “increased”. In addition, the “expression of eIF4E sensitive genes ADK, IRSp53, and CREB1” value in the data set with ADK, IRSp53, and CREB1 was “significantly reduced”. Further, in data set [6], the “% sucrose preference” value was “increased”. In addition, the “eIF4E expression in sheIF4E-expressing neurons (immunostaining)” value in the data set with eIF4E [7] is listed as “significantly reduced”. Also, the cortical dysplasia entry in data set [8] (brain tissue at postnatal day 7) is given as “remarkably reduced”. The defective neuronal migration entry in [8] (mTOR mutant mice) was “significantly alleviated”. Also, in [8] (postnatal day 21), the “decreased synaptic spine density” value was “rescued” and the “hypertrophic soma (neuronal cell size)” value was “rescued”. Besides, the “time spent in center (index of anxiety)” value in [9] (mU6-sheIF4E models compared to mU6-shscramble models) is reported as “increased”. Further, in data set [9] (mouse, in vivo), the “dyskinesia (behavior test)” value is “no dyskinesia”. The “number of buried marbles (repetitive behavior)” value in data set [10] is on record as “increased”.

(Values after US12570975B2, “Composition for diagnosis or treatment of a condition associated with increased activity of EIF4E comprising an EIF4E inhibitor” (SoVarGen Co., Ltd., priority 2019, dated 2026).)
